Reference: the supplement of paper PMC9112550, “Optimization of the antimicrobial peptide Bac7 by deep mutational scanning” (BMC Biology, 2022)

Each sequence was assayed on Escherichia coli TOP10 (assay: shrunken log2 fold change of peptide-encoding DNA abundance (4.5 h post-induction vs induction); higher = less antimicrobial activity (less host growth inhibition)). Details: time post-induction: 4.5 h; library: site-saturation at positions 5, 18, 19, 20.
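Note: peptides expressed intracellularly from a pBAD plasmid library in pooled LB shake-flask culture, induced with 0.3% L-arabinose, DNA abundance read by NGS, three biological replicates, DESeq2 with apeglm shrinkage.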

Point of comparison: RRIRLRPPRLPRPRPRPFSFPRP, “shrunken log2 fold change” value -0.388. Against it:
- RRIRNRPPRLPRPRPRPMIWPRP — higher, -0.166
- RRIRVRPPRLPRPRPRPAFRPRP — higher, 0.186
- RRIRTRPPRLPRPRPRPPDAPRP — higher, 0.232
- RRIRVRPPRLPRPRPRPPSRPRP — higher, 0.743
- RRIRHRPPRLPRPRPRPVCLPRP — higher, -0.0609
- RRIRWRPPRLPRPRPRPFCRPRP — higher, 0.0689
- RRIRHRPPRLPRPRPRPEVLPRP — higher, -0.0421
- RRIRSRPPRLPRPRPRPLYIPRP — within 0.2 log units, -0.276
- RRIRARPPRLPRPRPRPLWCPRP — within 0.2 log units, -0.264
- RRIRKRPPRLPRPRPRPETRPRP — higher, 0.269
- RRIRQRPPRLPRPRPRPSPNPRP — higher, 0.16
- RRIRNRPPRLPRPRPRPNFRPRP — higher, 0.0289
- RRIRQRPPRLPRPRPRPKEYPRP — higher, 0.0124
- RRIRERPPRLPRPRPRPKEHPRP — within 0.2 log units, -0.457
- RRIRWRPPRLPRPRPRPYKNPRP — lower, -0.61
- RRIRIRPPRLPRPRPRPSSGPRP — within 0.2 log units, -0.219
- RRIRWRPPRLPRPRPRPTYFPRP — within 0.2 log units, -0.359
- RRIRMRPPRLPRPRPRPSHCPRP — higher, 0.0171
- RRIRFRPPRLPRPRPRPVHYPRP — within 0.2 log units, -0.195
- RRIRTRPPRLPRPRPRPYEDPRP — higher, -0.0155
- RRIRSRPPRLPRPRPRPYHHPRP — within 0.2 log units, -0.511
- RRIRWRPPRLPRPRPRPIVVPRP — higher, -0.0496
- RRIRRRPPRLPRPRPRPNIRPRP — higher, -0.144
- RRIRWRPPRLPRPRPRPGCRPRP — higher, 0.417
- RRIRERPPRLPRPRPRPYYIPRP — within 0.2 log units, -0.262
- RRIRCRPPRLPRPRPRPDINPRP — within 0.2 log units, -0.294
- RRIRNRPPRLPRPRPRPKAFPRP — higher, -0.0608
- RRIRFRPPRLPRPRPRPPPLPRP — higher, 1.38
- RRIRSRPPRLPRPRPRPYYEPRP — lower, -0.628
- RRIRWRPPRLPRPRPRPHNFPRP — higher, -0.0122
- RRIRKRPPRLPRPRPRPDLSPRP — higher, -0.0341
- RRIRARPPRLPRPRPRPNPLPRP — higher, 0.32
- RRIRPRPPRLPRPRPRPNEGPRP — higher, 0.0293
- RRIRMRPPRLPRPRPRPWARPRP — higher, 0.306
- RRIRFRPPRLPRPRPRPFRSPRP — higher, -0.0534
- RRIRLRPPRLPRPRPRPWVIPRP — higher, -0.0649
- RRIRGRPPRLPRPRPRPWVKPRP — higher, 0.0642
- RRIRVRPPRLPRPRPRPGDRPRP — higher, 0.365
- RRIRHRPPRLPRPRPRPTKHPRP — higher, -0.142
- RRIRGRPPRLPRPRPRPAHHPRP — higher, 0.452
- RRIRSRPPRLPRPRPRPGIMPRP — within 0.2 log units, -0.334
- RRIRIRPPRLPRPRPRPRNSPRP — higher, 0.0503
- RRIRRRPPRLPRPRPRPGYPPRP — higher, 0.00327
- RRIRARPPRLPRPRPRPVVFPRP — higher, 0.213
- RRIRCRPPRLPRPRPRPCPQPRP — higher, -0.184
- RRIRYRPPRLPRPRPRPCLAPRP — lower, -0.838
- RRIRKRPPRLPRPRPRPDGAPRP — higher, 0.632
- RRIRLRPPRLPRPRPRPIKEPRP — higher, -0.0262
- RRIRRRPPRLPRPRPRPEHEPRP — higher, 0.0952
- RRIRARPPRLPRPRPRPWPNPRP — higher, 0.111
- RRIRRRPPRLPRPRPRPMKWPRP — higher, 0.016
- RRIRRRPPRLPRPRPRPIPLPRP — higher, 0.194
- RRIRQRPPRLPRPRPRPVLMPRP — higher, 0.111
- RRIRVRPPRLPRPRPRPKNQPRP — higher, -0.173
- RRIRDRPPRLPRPRPRPAELPRP — higher, 0.0334
- RRIRRRPPRLPRPRPRPEAQPRP — higher, 0.253
- RRIRDRPPRLPRPRPRPSQSPRP — higher, -0.119
- RRIRPRPPRLPRPRPRPQKTPRP — higher, -0.0227
- RRIRFRPPRLPRPRPRPITWPRP — lower, -0.972
- RRIRARPPRLPRPRPRPANCPRP — higher, 0.186
- RRIRHRPPRLPRPRPRPTFRPRP — higher, 0.0997
- RRIRNRPPRLPRPRPRPTYPPRP — within 0.2 log units, -0.275
- RRIRFRPPRLPRPRPRPAFMPRP — higher, -0.164
- RRIRHRPPRLPRPRPRPTRDPRP — higher, 0.054
- RRIRKRPPRLPRPRPRPCLEPRP — higher, 0.0959
- RRIRERPPRLPRPRPRPCTQPRP — higher, -0.00926
- RRIRKRPPRLPRPRPRPQCSPRP — higher, 0.136
- RRIRKRPPRLPRPRPRPTWSPRP — higher, 0.278
- RRIRPRPPRLPRPRPRPMLEPRP — higher, 0.0664
- RRIRKRPPRLPRPRPRPWFSPRP — within 0.2 log units, -0.329
- RRIRKRPPRLPRPRPRPNIQPRP — higher, -0.0271
- RRIRPRPPRLPRPRPRPLWIPRP — higher, -0.128
- RRIRARPPRLPRPRPRPLLYPRP — higher, 0.09
- RRIRPRPPRLPRPRPRPKNAPRP — higher, -0.0349
